Measurements from US20150191546A1.

Biological target: recombinant PR1/HLA-A*0201 monomer (human)
Assay: SPR (Biacore), antibody captured, peptide/HLA-A2 as analyte

Substance: BB7.2 murine monoclonal antibody (HLA-A*0201 allele-specific mouse IgG2a)
- Kd: 162 nM
